Laboratory results: publication PMC3260217

Target: NP wt (Influenza A virus H1N1 (A/WSN/33), UniProt P15682 1-498)
Test: SPR
Conditions: protein: recombinant; tags: C-terminal 6xHis; label: 5'-biotin; single strand

UUUGUUACACACACACACGCUGUG (ssRNA) [Flu1 RNA 24-mer] showed a Kd of 41 ± 7 nM.
